Biological target: the molecule itself
Assay: SEC

B1: Methanococcus maripaludis O-phosphoseryl-tRNA:selenocysteinyl-tRNA synthase (SepSecS) (enzyme, UniProt Q6LZM9 1-436, looked up)
chain: MLDFNIEGLIPKNMEKRGELVLNEYLKEIEDVFNHRKIPENGIDDEKIKLFLKFLSMMDTDKDPKSVRIGEREARTYSKIHEELSSGFCHGIGRSGNLVDPQPKASGASIMYALTNKILESFFKQLGLNVHAIATPISTGMSISLCLSAARKKYGSNVVIYPYASHKSPIKAVSFVGMNMRLVETVLDGDRVYVPVEDIENAIKKEIELGNRPCVLSTLTFFPPRNSDDIVEIAKICENYDIPHIINGAYAIQNNYYLEKLKKAFKYRVDAVVSSSDKNLLTPIGGGLVYSTDAEFIKEISLSYPGRASATPVVNTLVSLLSMGSKNYLELVKNQKNSKKLLDELLNDLSKKTGGKFLDVESPIASCISVNSDPVEIAAKLYNLRVTGPRGIKKTDHFGNCYLGTYTHDYIVMNAAIGVRTEDIVNSVSKLEKILL
modifications: selenomethionine-labeled; PLP covalently bound via a Schiff base to Lys278
For B1, the “stoichiometry N” value was 4.

Reference: article PMC2275076 (Nucleic Acids Research, 2007)
